In US20210340209A1 (IMMUNE TARGETING, published 2021):

Target: T1, human IL-2 mutant V1 (human, UniProt P60568 21-153)
T1 construct: Mutein found by yeast surface display screen; the ELISA format (any tag or Fc) is not described; also called IL-2 mutein
T1 chain: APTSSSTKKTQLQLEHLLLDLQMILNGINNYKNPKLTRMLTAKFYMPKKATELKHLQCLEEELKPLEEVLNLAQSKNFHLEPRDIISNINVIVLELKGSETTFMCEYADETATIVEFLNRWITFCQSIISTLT
Assay: ELISA

B1: human IL-2R beta (receptor)
chain: AVNGTSQFTCFYNSRANISCVWSQDGALQDTSCQVHAWPDRRRWNQTCELLPVSQASWACNLILGAPDSQKLTTVDIVTLRVLCREGVRWRVMAIQDFKPFENLRLMAPISLQVVHVETHRCNISWEISQASHYFERHLEFEARTLSPGHTWEEAPLLTLKQKQEWICLETLTPDTQYEFQVRVKPLQGEFTTWSPWSQPLAFRTKPAALGKDT
notes: Soluble IL-2R beta reagent, titrated on yeast and used in ELISA; also called IL-2 receptor beta
fold stronger binding than to IL-2 WT: ~20 times
